Results on one substance are retold here after patent US20040171000A1.

The test addresses human telomerase (active telomerase from HeLa cell nuclear extract; catalytic subunit hTERT) (human) (UniProt O14746). The test can be described thus: cell-based or functional assay.

Chain of human telomerase (active telomerase from HeLa cell nuclear extract; catalytic subunit hTERT) (human) (O14746 whole entry): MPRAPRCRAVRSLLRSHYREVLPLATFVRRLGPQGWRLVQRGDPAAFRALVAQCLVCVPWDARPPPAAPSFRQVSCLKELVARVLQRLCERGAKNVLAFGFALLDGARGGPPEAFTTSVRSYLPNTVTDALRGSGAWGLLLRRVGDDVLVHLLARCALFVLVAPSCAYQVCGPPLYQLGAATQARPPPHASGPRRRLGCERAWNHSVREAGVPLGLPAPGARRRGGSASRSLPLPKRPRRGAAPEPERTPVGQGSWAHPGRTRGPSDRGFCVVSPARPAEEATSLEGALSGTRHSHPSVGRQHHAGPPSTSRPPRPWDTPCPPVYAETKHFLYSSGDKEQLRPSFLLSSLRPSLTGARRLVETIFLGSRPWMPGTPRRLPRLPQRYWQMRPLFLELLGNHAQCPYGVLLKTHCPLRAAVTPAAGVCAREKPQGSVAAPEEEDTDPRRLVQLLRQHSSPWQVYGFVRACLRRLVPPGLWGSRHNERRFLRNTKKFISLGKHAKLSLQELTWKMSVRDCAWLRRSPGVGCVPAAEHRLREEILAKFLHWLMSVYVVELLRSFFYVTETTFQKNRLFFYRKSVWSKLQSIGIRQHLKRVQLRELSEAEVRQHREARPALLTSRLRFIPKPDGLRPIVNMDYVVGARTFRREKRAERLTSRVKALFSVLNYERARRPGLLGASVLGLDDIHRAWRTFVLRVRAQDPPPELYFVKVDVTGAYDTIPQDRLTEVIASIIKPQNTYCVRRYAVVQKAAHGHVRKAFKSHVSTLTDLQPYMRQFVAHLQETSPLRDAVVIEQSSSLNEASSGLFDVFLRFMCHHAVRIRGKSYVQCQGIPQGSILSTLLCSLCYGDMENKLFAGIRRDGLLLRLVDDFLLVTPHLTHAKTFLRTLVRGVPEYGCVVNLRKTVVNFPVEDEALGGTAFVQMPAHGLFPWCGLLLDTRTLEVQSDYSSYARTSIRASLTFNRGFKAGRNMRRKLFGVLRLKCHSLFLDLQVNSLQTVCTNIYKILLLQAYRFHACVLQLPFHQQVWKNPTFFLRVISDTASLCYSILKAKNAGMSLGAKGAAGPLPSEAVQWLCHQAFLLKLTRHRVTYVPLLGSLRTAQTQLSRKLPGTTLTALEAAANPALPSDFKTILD

The substance “EST1-0732 (human EST1 protein of SEQ ID No 2) (from UniProt Q86US8 1-1419)” returned a telomerase activity immunoprecipitated by antibodies to SEQ ID No 7 of 70%.
